Laboratory results as given in PMC10924461, “Structure and ligand binding in the putative anti-microbial peptide transporter protein, YejA” (Microbiology, 2024).

What was measured:
[1] = molecular target: T1, YejA, periplasmic solute-binding protein of the YejABEF ABC transporter from E. coli (E. coli K12, UniProt P33913 20-604); assay: thermal shift assay (SYPRO orange); 0.5 mg ml^-1 (7.3 µM) YejA, 5x SYPRO orange, 25 µl, 25-96 °C in 1 °C/30 s steps; synthetic peptides added; a shift greater than 3 °C taken as significant; details: both partners purified
T1 construct: YejA, E. coli K12, residues 1-585 (Gln1-Glu585) of the mature protein, without the signal peptide; numbers count on: the mature protein; also called EcYejA; recombinant YejA; source: E. coli BL21 (DE3) with pBKA101, purified (HisTrap, HRV 3C cleavage, S200 SEC); not shown: His6, C-terminal, cleaved
T1 sequence (looked up): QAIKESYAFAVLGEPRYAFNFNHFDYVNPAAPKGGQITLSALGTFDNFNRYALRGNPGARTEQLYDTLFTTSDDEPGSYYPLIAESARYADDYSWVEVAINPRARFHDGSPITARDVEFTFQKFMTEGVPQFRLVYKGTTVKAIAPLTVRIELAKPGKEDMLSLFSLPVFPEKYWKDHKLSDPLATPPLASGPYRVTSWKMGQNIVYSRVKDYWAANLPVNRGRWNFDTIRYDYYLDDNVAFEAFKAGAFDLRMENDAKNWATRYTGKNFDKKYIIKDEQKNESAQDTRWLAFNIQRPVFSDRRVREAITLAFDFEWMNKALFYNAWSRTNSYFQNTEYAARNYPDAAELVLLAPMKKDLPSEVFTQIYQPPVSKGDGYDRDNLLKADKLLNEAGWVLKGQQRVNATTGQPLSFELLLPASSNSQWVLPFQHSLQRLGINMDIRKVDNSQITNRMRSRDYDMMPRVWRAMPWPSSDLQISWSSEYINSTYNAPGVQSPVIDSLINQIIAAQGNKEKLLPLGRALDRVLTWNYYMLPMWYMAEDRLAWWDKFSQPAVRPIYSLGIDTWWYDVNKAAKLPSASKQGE

[2] = molecular target: T1, YejA, periplasmic solute-binding …; assay: as above; details: both partners purified; remark: listed apart in the source

B1: GEPRYAFNFN (peptide)
peptide: GEPRYAFNFN
notes: YejA, E. coli, stretch of the N-terminal segment; numbers count on: the mature protein; source: synthetic peptide
melting temp. change with 2.5 mg ml^-1 (2.06 mM) peptide [1]: 14 °C

B2: LGEPRYAFNFN (peptide)
peptide: LGEPRYAFNFN
notes: YejA, E. coli, residues 12-22 of the N-terminal segment; numbers count on: the mature protein; also called undecapeptide; 11-mer; source: co-purified and co-crystallised with recombinant YejA (self-derived); synthetic peptide
Tm of YejA with 0.005 mg ml^-1 peptide (60.8 °C without peptide) [2]: 62.6 °C
Tm of YejA with 0.05 mg ml^-1 peptide (60.8 °C without peptide) [2]: 67.5 °C
melting temp. change with 0.75 mg ml^-1 (0.56 mM) peptide [1]: 13 °C

B3: LGEPAYAFNFN (peptide)
peptide: LGEPAYAFNFN
notes: numbers count on: the peptide (Leu1 = residue 12 of mature YejA); source: synthetic peptide
melting temp. change with 2.5 mg ml^-1 (2.01 mM) peptide [1]: 7 °C

B4: LGEPRWAFNFN (peptide)
peptide: LGEPRWAFNFN
notes: numbers count on: the peptide (Leu1 = residue 12 of mature YejA); also called Trp-containing peptide; Trp6 containing peptide; source: synthetic peptide
melting temp. change with 2.5 mg ml^-1 (1.85 mM) peptide [1]: 22 °C

B5: EPRYAFNFN (peptide)
peptide: EPRYAFNFN
notes: as for B1
melting temp. change with 2.5 mg ml^-1 (2.16 mM) peptide [1]: 8 °C

B6: LGEPRYAFNF (peptide)
peptide: LGEPRYAFNF
notes: as for B1
melting temp. change with 2.5 mg ml^-1 (2.06 mM) peptide [1]: 20 °C

B7: VLGEPRYAFNF (peptide)
peptide: VLGEPRYAFNF
notes: YejA, E. coli, stretch of the N-terminal segment; numbers count on: the mature protein; source: co-purified with recombinant YejA (self-derived); synthetic peptide
melting temp. change with 2.5 mg ml^-1 (1.9 mM) peptide [1]: 22 °C

B8: LGEPRYAFN (peptide)
peptide: LGEPRYAFN
notes: as for B1
melting temp. change with 1.25 mg ml^-1 (1.17 mM) peptide [1]: 17 °C

B9: VLGEPRYAFNFNHFD (peptide)
peptide: VLGEPRYAFNFNHFD
notes: YejA, E. coli, stretch of the N-terminal segment; numbers count on: the mature protein; also called 15-mer; source: co-purified with recombinant YejA (self-derived); synthetic peptide
melting temp. change with 2.5 mg ml^-1 (1.37 mM) peptide [1]: 26 °C

B10: VLGEPRYAFNFN (peptide)
peptide: VLGEPRYAFNFN
notes: YejA, E. coli, stretch of the N-terminal segment; numbers count on: the mature protein; also called dodecapeptide; 12-mer; source: co-purified with recombinant YejA (self-derived); synthetic peptide
melting temp. change with 2.5 mg ml^-1 (1.75 mM) peptide [1]: 21 °C

B11: FAVLGEPRYAFN (peptide)
peptide: FAVLGEPRYAFN
notes: as for B7
melting temp. change with 5 mg ml^-1 (3.61 mM) peptide [1]: 19 °C
